According to patent US20140080757A1 (ZEALAND PHARMA A S, published 2014):
Each block holds one binder with its values, some of them ahead of it. Numbered stars: 1 amine (or outer) side, 2 acyl side, 3 side chain; on linkers, the order of the positions; unused ones are H or OH. Square brackets hold non-standard residues; d marks the D form. Side chains are listed from the residue outwards. * marks the point of attachment. γGlu = O=C(O)[C@H](CCC(=O)[*:2])N[*:1]; Palmitoyl = CCCCCCCCCCCCCCCC(=O)*; Aib = CC(C)(N)C(=O)O

What was measured:
Assay in all cases: cell-based or functional assay
[1] = target: T1, endogenous GLP-1 receptor of a murine insulinoma cell line (murine, UniProt O35659 22-463)
T1 sequence (looked up): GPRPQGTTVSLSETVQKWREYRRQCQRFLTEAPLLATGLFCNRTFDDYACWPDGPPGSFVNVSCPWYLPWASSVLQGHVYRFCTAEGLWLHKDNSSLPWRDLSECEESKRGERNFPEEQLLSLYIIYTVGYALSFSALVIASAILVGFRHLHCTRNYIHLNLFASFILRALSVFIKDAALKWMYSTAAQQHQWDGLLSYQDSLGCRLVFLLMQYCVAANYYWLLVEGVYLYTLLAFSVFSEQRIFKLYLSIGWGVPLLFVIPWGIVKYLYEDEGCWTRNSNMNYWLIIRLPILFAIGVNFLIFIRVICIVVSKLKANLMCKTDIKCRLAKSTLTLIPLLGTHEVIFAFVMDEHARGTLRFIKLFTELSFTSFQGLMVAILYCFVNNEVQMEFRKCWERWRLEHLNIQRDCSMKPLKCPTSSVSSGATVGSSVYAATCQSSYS

[2] = target: endogenous glucagon receptor of primary rat hepatocytes (rat, UniProt P30082 27-485)
[3] = target: human glucagon receptor (Glucagon-R) (human, UniProt P47871 26-477)
[4] = target: human glucagon-like peptide 1 receptor (GLP-1R) (human, UniProt P43220 24-463)

Chain of human glucagon receptor (Glucagon-R) (P47871 26-477): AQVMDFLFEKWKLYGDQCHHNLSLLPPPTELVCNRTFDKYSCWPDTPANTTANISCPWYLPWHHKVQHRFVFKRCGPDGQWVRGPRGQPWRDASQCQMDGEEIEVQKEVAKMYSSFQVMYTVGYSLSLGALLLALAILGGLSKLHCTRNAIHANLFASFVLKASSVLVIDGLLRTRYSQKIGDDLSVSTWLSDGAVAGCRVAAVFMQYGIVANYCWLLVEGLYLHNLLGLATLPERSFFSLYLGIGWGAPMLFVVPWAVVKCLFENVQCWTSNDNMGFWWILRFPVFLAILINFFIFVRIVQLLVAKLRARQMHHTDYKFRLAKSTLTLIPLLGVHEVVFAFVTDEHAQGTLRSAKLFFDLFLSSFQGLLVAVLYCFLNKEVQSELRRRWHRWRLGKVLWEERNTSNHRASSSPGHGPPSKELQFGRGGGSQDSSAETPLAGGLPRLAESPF
Chain of endogenous glucagon receptor of primary rat hepatocytes (P30082 27-485): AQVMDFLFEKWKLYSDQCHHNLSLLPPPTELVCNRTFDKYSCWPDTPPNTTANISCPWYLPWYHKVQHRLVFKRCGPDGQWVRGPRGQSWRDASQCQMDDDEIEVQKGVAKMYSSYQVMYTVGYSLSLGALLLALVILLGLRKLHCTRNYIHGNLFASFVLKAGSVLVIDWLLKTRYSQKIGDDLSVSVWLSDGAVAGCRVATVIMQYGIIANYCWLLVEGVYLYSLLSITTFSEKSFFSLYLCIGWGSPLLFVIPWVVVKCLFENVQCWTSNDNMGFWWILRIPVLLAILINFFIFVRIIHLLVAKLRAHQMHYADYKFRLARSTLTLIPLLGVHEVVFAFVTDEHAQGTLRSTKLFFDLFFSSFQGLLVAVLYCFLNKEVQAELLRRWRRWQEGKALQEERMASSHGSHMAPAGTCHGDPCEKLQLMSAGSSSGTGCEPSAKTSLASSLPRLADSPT

B1: Compound 2 (peptide)
peptide: H-HSQGTFTSDYSKYLDSK([γGlu-Palmitoyl])AAHDFVEWLLSA-OH
SMILES: CCCCCCCCCCCCCCCC(=O)N[C@@H](CCC(=O)NCCCC[C@H](NC(=O)[C@H](CO)NC(=O)[C@H](CC(=O)O)NC(=O)[C@H](CC(C)C)NC(=O)[C@H](Cc1ccc(O)cc1)NC(=O)[C@H](CCCCN)NC(=O)[C@H](CO)NC(=O)[C@H](Cc1ccc(O)cc1)NC(=O)[C@H](CC(=O)O)NC(=O)[C@H](CO)NC(=O)[C@@H](NC(=O)[C@H](Cc1ccccc1)NC(=O)[C@@H](NC(=O)CNC(=O)[C@H](CCC(N)=O)NC(=O)[C@H](CO)NC(=O)[C@@H](N)Cc1c[nH]cn1)[C@@H](C)O)[C@@H](C)O)C(=O)N[C@@H](C)C(=O)N[C@@H](C)C(=O)N[C@@H](Cc1c[nH]cn1)C(=O)N[C@@H](CC(=O)O)C(=O)N[C@@H](Cc1ccccc1)C(=O)N[C@H](C(=O)N[C@@H](CCC(=O)O)C(=O)N[C@@H](Cc1c[nH]c2ccccc12)C(=O)N[C@@H](CC(C)C)C(=O)N[C@@H](CC(C)C)C(=O)N[C@@H](CO)C(=O)N[C@@H](C)C(=O)O)C(C)C)C(=O)O
EC50 GLP-1R (murine insulinoma cells) [nM] (cAMP) [1]: 1.41 nM
EC50 GLP-1R Rat hepat. [nM] (inhibition of glycogen synthesis) [2]: 0.43 nM
EC50 hGCGR CHO-K1 [nM] (cAMP) [3]: 0.31 nM
EC50 hGLP-1R CHO-K1 [nM] (cAMP) [4]: 0.77 nM
Ratio GLP-1/Glucagon (EC50 hGLP-1R / EC50 hGCGR) [4]: 2.48 ratio

B3: Compound 5 (peptide)
peptide: H-H[Aib]QGTFTSDYSKYLDSK([γGlu-Palmitoyl])AAHDFVEWLESA-NH2
SMILES: CCCCCCCCCCCCCCCC(=O)N[C@@H](CCC(=O)NCCCC[C@H](NC(=O)[C@H](CO)NC(=O)[C@H](CC(=O)O)NC(=O)[C@H](CC(C)C)NC(=O)[C@H](Cc1ccc(O)cc1)NC(=O)[C@H](CCCCN)NC(=O)[C@H](CO)NC(=O)[C@H](Cc1ccc(O)cc1)NC(=O)[C@H](CC(=O)O)NC(=O)[C@H](CO)NC(=O)[C@@H](NC(=O)[C@H](Cc1ccccc1)NC(=O)[C@@H](NC(=O)CNC(=O)[C@H](CCC(N)=O)NC(=O)C(C)(C)NC(=O)[C@@H](N)Cc1c[nH]cn1)[C@@H](C)O)[C@@H](C)O)C(=O)N[C@@H](C)C(=O)N[C@@H](C)C(=O)N[C@@H](Cc1c[nH]cn1)C(=O)N[C@@H](CC(=O)O)C(=O)N[C@@H](Cc1ccccc1)C(=O)N[C@H](C(=O)N[C@@H](CCC(=O)O)C(=O)N[C@@H](Cc1c[nH]c2ccccc12)C(=O)N[C@@H](CC(C)C)C(=O)N[C@@H](CCC(=O)O)C(=O)N[C@@H](CO)C(=O)N[C@@H](C)C(N)=O)C(C)C)C(=O)O
EC50 GLP-1R (murine insulinoma cells) [nM] (cAMP) [1]: 0.54 nM
EC50 GLP-1R Rat hepat. [nM] (inhibition of glycogen synthesis) [2]: 0.03 nM
EC50 hGCGR CHO-K1 [nM] (cAMP) [3]: 0.46 nM
EC50 hGLP-1R CHO-K1 [nM] (cAMP) [4]: 0.16 nM
Ratio GLP-1/Glucagon (EC50 hGLP-1R / EC50 hGCGR) [4]: 0.35 ratio

B4: Compound 1 (peptide)
peptide: H-H[Aib]QGTFTSDYSKYLDSK([γGlu-Palmitoyl])AAHDFVEWLLS-OH
SMILES: CCCCCCCCCCCCCCCC(=O)N[C@@H](CCC(=O)NCCCC[C@H](NC(=O)[C@H](CO)NC(=O)[C@H](CC(=O)O)NC(=O)[C@H](CC(C)C)NC(=O)[C@H](Cc1ccc(O)cc1)NC(=O)[C@H](CCCCN)NC(=O)[C@H](CO)NC(=O)[C@H](Cc1ccc(O)cc1)NC(=O)[C@H](CC(=O)O)NC(=O)[C@H](CO)NC(=O)[C@@H](NC(=O)[C@H](Cc1ccccc1)NC(=O)[C@@H](NC(=O)CNC(=O)[C@H](CCC(N)=O)NC(=O)C(C)(C)NC(=O)[C@@H](N)Cc1c[nH]cn1)[C@@H](C)O)[C@@H](C)O)C(=O)N[C@@H](C)C(=O)N[C@@H](C)C(=O)N[C@@H](Cc1c[nH]cn1)C(=O)N[C@@H](CC(=O)O)C(=O)N[C@@H](Cc1ccccc1)C(=O)N[C@H](C(=O)N[C@@H](CCC(=O)O)C(=O)N[C@@H](Cc1c[nH]c2ccccc12)C(=O)N[C@@H](CC(C)C)C(=O)N[C@@H](CC(C)C)C(=O)N[C@@H](CO)C(=O)O)C(C)C)C(=O)O
EC50 GLP-1R (murine insulinoma cells) [nM] (cAMP) [1]: 1.47 nM
EC50 hGCGR CHO-K1 [nM] (cAMP) [3]: 0.9 nM
EC50 hGLP-1R CHO-K1 [nM] (cAMP) [4]: 0.54 nM
Ratio GLP-1/Glucagon (EC50 hGLP-1R / EC50 hGCGR) [4]: 0.6 ratio

B5: Compound 11 (peptide)
peptide: H-H[Aib]QGTFTSDYSKYLDEK([γGlu-Palmitoyl])RAKDFIEWLLS-OH
SMILES: CCCCCCCCCCCCCCCC(=O)N[C@@H](CCC(=O)NCCCC[C@H](NC(=O)[C@H](CCC(=O)O)NC(=O)[C@H](CC(=O)O)NC(=O)[C@H](CC(C)C)NC(=O)[C@H](Cc1ccc(O)cc1)NC(=O)[C@H](CCCCN)NC(=O)[C@H](CO)NC(=O)[C@H](Cc1ccc(O)cc1)NC(=O)[C@H](CC(=O)O)NC(=O)[C@H](CO)NC(=O)[C@@H](NC(=O)[C@H](Cc1ccccc1)NC(=O)[C@@H](NC(=O)CNC(=O)[C@H](CCC(N)=O)NC(=O)C(C)(C)NC(=O)[C@@H](N)Cc1c[nH]cn1)[C@@H](C)O)[C@@H](C)O)C(=O)N[C@@H](CCCNC(=N)N)C(=O)N[C@@H](C)C(=O)N[C@@H](CCCCN)C(=O)N[C@@H](CC(=O)O)C(=O)N[C@@H](Cc1ccccc1)C(=O)N[C@H](C(=O)N[C@@H](CCC(=O)O)C(=O)N[C@@H](Cc1c[nH]c2ccccc12)C(=O)N[C@@H](CC(C)C)C(=O)N[C@@H](CC(C)C)C(=O)N[C@@H](CO)C(=O)O)[C@@H](C)CC)C(=O)O
EC50 GLP-1R (murine insulinoma cells) [nM] (cAMP) [1]: 1.01 nM
EC50 hGCGR CHO-K1 [nM] (cAMP) [3]: 0.61 nM
EC50 hGLP-1R CHO-K1 [nM] (cAMP) [4]: 0.64 nM
Ratio GLP-1/Glucagon (EC50 hGLP-1R / EC50 hGCGR) [4]: 1.05 ratio

Second part, the binder after the results:

EC50 GLP-1R (murine insulinoma cells) [nM] (cAMP) [1]: 1.06 nM
EC50 GLP-1R Rat hepat. [nM] (inhibition of glycogen synthesis) [2]: 0.16 nM
EC50 hGCGR CHO-K1 [nM] (cAMP) [3]: 0.35 nM
EC50 hGLP-1R CHO-K1 [nM] (cAMP) [4]: 0.91 nM
Ratio GLP-1/Glucagon (EC50 hGLP-1R / EC50 hGCGR) [4]: 2.6 ratio
B2: Compound 3 (peptide)
peptide: H-HSQGTFTSDYSKYLDSK([γGlu-Palmitoyl])AAHDFVEWLLRA-OH
SMILES: CCCCCCCCCCCCCCCC(=O)N[C@@H](CCC(=O)NCCCC[C@H](NC(=O)[C@H](CO)NC(=O)[C@H](CC(=O)O)NC(=O)[C@H](CC(C)C)NC(=O)[C@H](Cc1ccc(O)cc1)NC(=O)[C@H](CCCCN)NC(=O)[C@H](CO)NC(=O)[C@H](Cc1ccc(O)cc1)NC(=O)[C@H](CC(=O)O)NC(=O)[C@H](CO)NC(=O)[C@@H](NC(=O)[C@H](Cc1ccccc1)NC(=O)[C@@H](NC(=O)CNC(=O)[C@H](CCC(N)=O)NC(=O)[C@H](CO)NC(=O)[C@@H](N)Cc1c[nH]cn1)[C@@H](C)O)[C@@H](C)O)C(=O)N[C@@H](C)C(=O)N[C@@H](C)C(=O)N[C@@H](Cc1c[nH]cn1)C(=O)N[C@@H](CC(=O)O)C(=O)N[C@@H](Cc1ccccc1)C(=O)N[C@H](C(=O)N[C@@H](CCC(=O)O)C(=O)N[C@@H](Cc1c[nH]c2ccccc12)C(=O)N[C@@H](CC(C)C)C(=O)N[C@@H](CC(C)C)C(=O)N[C@@H](CCCNC(=N)N)C(=O)N[C@@H](C)C(=O)O)C(C)C)C(=O)O

EC50 GLP-1R (murine insulinoma cells) [nM] (cAMP) [1]: 0.95 nM
EC50 GLP-1R Rat hepat. [nM] (inhibition of glycogen synthesis) [2]: 0.35 nM
EC50 hGCGR CHO-K1 [nM] (cAMP) [3]: 1.56 nM
EC50 hGLP-1R CHO-K1 [nM] (cAMP) [4]: 0.38 nM
Ratio GLP-1/Glucagon (EC50 hGLP-1R / EC50 hGCGR) [4]: 0.24 ratio
Binder: HXQGTFTSDYSKYLDEXAAKDFIEWLLSA (Aib at position 2; Lys 17 K(Hexadecanoyl-isoGlu); C-terminal amide (-NH2)) [Compound 4]
